Measured values published in IntAct's records for PubMed 24418540.

The substances below were run against pebb_human CBFB (UniProt Q13951).
In the case of “Virion infectivity factor (Human immunodeficiency virus type 1 group M subtype B (isolate HXB2) (HIV-1)), P69723 W89A”, the “effect of a mutation on the interaction” value is reported as “disrupting interaction strength”. For “Virion infectivity factor (Human immunodeficiency virus type 1 group M subtype B (isolate HXB2) (HIV-1)), P69723 E88A;W89A”, the “effect of a mutation on the interaction” value was “disrupting interaction strength”. With “Virion infectivity factor (Human immunodeficiency virus type 1 group M subtype B (isolate HXB2) (HIV-1)), P69723 W38A” the “effect of a mutation on the interaction” value was “decreasing interaction strength”. With “Virion infectivity factor (Human immunodeficiency virus type 1 group M subtype B (isolate HXB2) (HIV-1)), P69723 W21A” the “effect of a mutation on the interaction” value was “disrupting interaction strength”. “Virion infectivity factor (Human immunodeficiency virus type 1 group M subtype B (isolate HXB2) (HIV-1)), P69723 Y69A” was tested, and the “effect of a mutation on the interaction” value was “decreasing interaction strength”.
